Data reported in patent publication US7851165B2, “Screening compounds for activity in modulating chloride ion transport” (Pharmos Bioscience A/S, priority 2005, dated 2010).
One block for each molecule: values may come before it.

Columns and labels:
Ostm1 = assay: Western blot of Ostm1 species after incubating fibroblasts with protease inhibitors; type: cell-based; conditions: fibroblasts incubated with protease inhibitor, FIG. 1 part (d)
[1] = molecular target: T1, ClC-6, endogenous, from solubilized mouse brain membranes (mouse, UniProt O35454 1-870); assay: co-immunoprecipitation from solubilized mouse brain membranes, Western blot
T1 construct: Specificity control in the brain co-immunoprecipitation; also called CIC-6
T1 sequence (looked up): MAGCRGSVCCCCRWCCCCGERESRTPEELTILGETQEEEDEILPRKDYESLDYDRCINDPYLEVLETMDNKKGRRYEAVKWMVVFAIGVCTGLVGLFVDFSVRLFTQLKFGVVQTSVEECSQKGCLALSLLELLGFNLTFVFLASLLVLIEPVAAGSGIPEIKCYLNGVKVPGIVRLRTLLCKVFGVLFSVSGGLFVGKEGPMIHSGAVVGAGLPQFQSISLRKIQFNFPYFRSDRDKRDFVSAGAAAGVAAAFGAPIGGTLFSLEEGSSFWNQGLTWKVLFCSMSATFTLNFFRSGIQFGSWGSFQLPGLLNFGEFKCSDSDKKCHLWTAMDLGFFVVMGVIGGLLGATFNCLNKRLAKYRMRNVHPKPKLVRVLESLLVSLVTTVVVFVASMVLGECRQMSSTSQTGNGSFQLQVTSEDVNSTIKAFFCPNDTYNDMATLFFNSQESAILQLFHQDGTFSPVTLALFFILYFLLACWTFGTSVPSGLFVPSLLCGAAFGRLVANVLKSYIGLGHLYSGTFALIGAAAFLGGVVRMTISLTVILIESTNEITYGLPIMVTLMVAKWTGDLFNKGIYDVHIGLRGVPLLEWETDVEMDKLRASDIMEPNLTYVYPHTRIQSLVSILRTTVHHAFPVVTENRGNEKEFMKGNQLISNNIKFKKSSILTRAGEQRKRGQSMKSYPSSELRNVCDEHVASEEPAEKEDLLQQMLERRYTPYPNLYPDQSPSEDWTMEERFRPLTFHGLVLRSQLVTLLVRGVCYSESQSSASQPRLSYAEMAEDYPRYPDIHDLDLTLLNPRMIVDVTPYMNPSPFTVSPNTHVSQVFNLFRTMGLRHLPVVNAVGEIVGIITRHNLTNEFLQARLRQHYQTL
Source text: (§1) ClC-7 and Ostm1 can be co-immunoprecipitated using endogenous material (FIG. part (d)) or overexpressed proteins (FIG. 6). […] Solubilized brain membranes from the genotypes indicated were directly loaded on the gel (input, lanes 1-3), or first immunoprecipitated with ClC-7 (lanes 4,5) or Ostm1 antibodies (lanes 6,7).
(§2) Ostm1 or ClC-7 antibodies were crosslinked to protein A sepharose by dimethylpimelimidate. Brain membranes were pelleted and solubilized in lysis buffer (MES buffered saline pH 6.5, 1% Triton X-100, 2.5 mM CaCl_2, 2.5 mM MgCl_2). Non-solubilized material was removed by centrifugation at 70,000×g. Samples were incubated with protein A sepharose-antibody complexes for 2 h at 4° C. and washed 4× with lysis buffer. After elution with 100 μl 0.1 M glycine/Cl, pH 2.8, samples were neutralized and denatured using SDS sample buffer. Equivalent amounts of lysate and precipitate were separated by SDS-PAGE.
(§3) Resulting Western blots were probed for the proteins indicated at right. Arrowheads, specific Ostm1 bands; *, non-specific bands. Equivalent amounts of lysates and precipitates were loaded.

[2] = molecular target: T2, lamp-2, endogenous, from solubilized mouse brain membranes (mouse, UniProt P17047 26-415, limits assumed); assay: as above
T2 construct: Specificity control in the brain co-immunoprecipitation
T2 sequence (looked up): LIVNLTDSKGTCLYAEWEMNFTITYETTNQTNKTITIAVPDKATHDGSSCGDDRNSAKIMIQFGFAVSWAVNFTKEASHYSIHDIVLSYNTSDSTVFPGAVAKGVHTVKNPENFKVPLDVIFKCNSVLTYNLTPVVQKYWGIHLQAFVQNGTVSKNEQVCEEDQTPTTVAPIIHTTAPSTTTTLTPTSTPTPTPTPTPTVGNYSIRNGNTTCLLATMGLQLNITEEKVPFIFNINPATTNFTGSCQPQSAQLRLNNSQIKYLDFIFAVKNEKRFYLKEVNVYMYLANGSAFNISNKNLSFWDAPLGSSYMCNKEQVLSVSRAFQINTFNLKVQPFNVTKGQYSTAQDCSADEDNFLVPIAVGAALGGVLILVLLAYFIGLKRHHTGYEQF
Source text: as §1, §2, §3

[3] = molecular target: T3, ClC-3, endogenous, from solubilized mouse brain membranes (mouse, UniProt P51791 1-818, limits assumed); assay: as above
T3 construct: Specificity control in the brain co-immunoprecipitation; also called CIC-3
T3 sequence (looked up): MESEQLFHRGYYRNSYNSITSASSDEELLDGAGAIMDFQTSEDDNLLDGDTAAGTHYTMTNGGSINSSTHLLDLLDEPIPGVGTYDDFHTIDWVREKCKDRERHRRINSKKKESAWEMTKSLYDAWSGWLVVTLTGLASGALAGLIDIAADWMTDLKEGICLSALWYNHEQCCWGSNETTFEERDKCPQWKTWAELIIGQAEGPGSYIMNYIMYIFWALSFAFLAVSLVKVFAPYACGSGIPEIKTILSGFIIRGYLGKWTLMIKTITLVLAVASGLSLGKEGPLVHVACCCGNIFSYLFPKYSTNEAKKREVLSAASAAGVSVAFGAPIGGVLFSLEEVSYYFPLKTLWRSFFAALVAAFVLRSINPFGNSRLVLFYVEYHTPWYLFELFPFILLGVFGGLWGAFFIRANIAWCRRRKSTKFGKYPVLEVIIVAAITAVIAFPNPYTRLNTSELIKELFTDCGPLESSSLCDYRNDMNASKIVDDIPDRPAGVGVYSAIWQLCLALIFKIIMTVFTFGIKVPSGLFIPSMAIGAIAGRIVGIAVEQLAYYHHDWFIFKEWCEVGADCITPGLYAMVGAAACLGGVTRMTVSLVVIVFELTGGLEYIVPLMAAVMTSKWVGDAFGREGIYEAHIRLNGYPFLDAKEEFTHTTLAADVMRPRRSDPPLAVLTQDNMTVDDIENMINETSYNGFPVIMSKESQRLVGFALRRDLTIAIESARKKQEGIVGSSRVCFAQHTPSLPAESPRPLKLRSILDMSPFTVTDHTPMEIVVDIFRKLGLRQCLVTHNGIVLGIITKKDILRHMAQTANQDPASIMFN
Source text: as §1, §2, §3

Molecule: CC(=O)N[C@@H](CC(C)C)C(=O)N[C@@H](CC(C)C)C(=O)N[C@H](C=O)CCCNC(=N)N [leupeptin]
proportion of the large (~80 kD) Ostm1 species versus the smaller ones (Ostm1): increased the proportion of the large Ostm1 species

binding result [1]: no binding
binding result [2]: no binding
binding result [3]: no binding
B1: Ostm1 (Osteopetrosis-associated transmembrane protein 1), endogenous, from solubilized mouse brain membranes (other, UniProt Q8BGT0 35-338, looked up)
chain: ALPFTSSRHPGFADLLSEQQLLEVQDLTLSLLQGGGLGPLSLLPPDLPDLEPECRELLMDFANSSAELTACMVRSARPVRLCQTCYPLFQQVAIKMDNISRNIGNTSEGPRCGGSLLTADRMQIVLMVSEFFNSTWQEANCANCLTNNGEDLSNNTEDFLSLFNKTLACFEHNLQGHTYSLLPPKNYSEVCRNCKEAYKNLSLLYSQMQKLNGLENKAEPETHLCIDVEDAMNITRKLWSRTFNCSVTCSDTVSVVAVSVFILFLPVVFYLSSFLHSEQKKRKLILPKRLKSSTSFANIQENAT
modifications: N-linked glycosylation of the luminal domain
notes: Endogenous protein immunoprecipitated from Triton X-100 solubilized mouse brain membranes; also called product of the OSTM1 gene
